The target in this test is endogenous GCSF receptor of 32Dcl3 cells. As to the kind of experiment: cell-based or functional assay.

We go through one substance from US20020173481A1.

Regarding “hGCSF (from UniProt P09919 31-204) (ligand)”, the kinase activity of Bmx in 32Dcl3 cells was 1.7 fold.
